Results reported in patent US20250304673A1 (CATALYM, published 2025).
Substitutions are numbered along the chain they refer to. Names and notes keep the numbering of the source.

Key:
[1] = molecular target: T1, mouse GDF-15 (mouse, UniProt Q9Z0J7 189-303); assay: SPR, Biacore T3000, antibody captured by anti-human IgG Fc, GDF-15 injected
T1 construct: the construct used in SPR is not described; also called mGDF-15; murine GDF-15
T1 sequence (looked up): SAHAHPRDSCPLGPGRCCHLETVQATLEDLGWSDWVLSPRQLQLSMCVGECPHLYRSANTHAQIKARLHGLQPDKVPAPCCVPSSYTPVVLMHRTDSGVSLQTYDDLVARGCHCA
Description: (§1) Affinity of CTL-002 to recombinant human GDF-15 was determined by measuring surface plasmon resonance on a Biacore T3000. In addition, the affinity to cynomolgus rat and mouse GDF-15 was measured (see Table 2).
(§2) All experiments were performed in 10 mM HEPES buffer, pH 7.4, 150 mM NaCl, 3.4 mM EDTA and 0.05% Tween. anti-human IgG Fc specific antibody (Jackson, Order #109-005-008, Lot #111148) was covalently immobilized by EDC/NHS chemistry on Biacore CM5 Chips (GE Healthcare, Order #61144275, Lot #10236645). For kinetic characterization of the antigen-antibody interaction pulses of increasing GDF-15 concentrations (e.g. 156.3 pM, 312 pM, 625 pM, 1,250 pM) were injected at a flow rate of 30 μl/min. After each measurement cycle (8 min of association followed by 30 min of dissociation) the antibody-antigen complex was resolved by regeneration of the surface with 10 mM glycine-HCl at pH 2.0. For calculation of the dissociation constant of CTL-002 the association and dissociation phases were recorded and evaluated by global fitting using the software BIAevaluation 4.1. For global fit analysis only, these antigen concentrations were taken into account, which allowed the analysis following the Langmuir 1:1 binding model or 1:1 binding with drifting baseline.

[2] = molecular target: T2, recombinant human GDF-15 (human, Disulfide-linked homodimer: two copies of this chain form the 24.6 kDa molecule of Table 1.); assay: as above
T2 construct: also called hGDF-15; Growth Differentiation Factor-15
T2 chain: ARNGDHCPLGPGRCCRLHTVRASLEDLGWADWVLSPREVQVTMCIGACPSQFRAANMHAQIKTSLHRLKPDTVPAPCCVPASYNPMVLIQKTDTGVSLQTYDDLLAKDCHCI
Description: as §1, §2

[3] = molecular target: T3, rat GDF-15 (rat, UniProt Q9Z0J6 189-303, limits assumed); assay: as above
T3 construct: the construct used in SPR is not described
T3 sequence (looked up): T1 sequence (looked up) with A4L, Q63L, K75R, R110Q
Description: as §1, §2

[4] = molecular target: T2, recombinant human GDF-15; assay: cell-based or functional assay
[5] = molecular target: cynomolgus GDF-15 (cynomolgus monkey); assay: SPR, Biacore T3000, antibody captured by anti-human IgG Fc, GDF-15 injected

- Kd [1]: 9.76 nM
- Kd [2]: 0.0383 nM
- Kd [3]: 0.449 nM
- EC50 of CTL-002 in the flow-adhesion assay with T cells [4]: 0.707 µg/mL
- EC50 of rescue of CD8+ T-cell adhesion, flow-adhesion assay [4]: ~0.7 µg/mL
- Kd [5]: 0.108 nM
B1: CTL-002 (antibody, human IgG4 S228P, kappa, V domains shown)
VH: QITLKESGPTLVKPTQTLTLTCTFSGFSLSTSGMGVSWIRQPPGKGLEWLAHIYWDDDKRYNPTLKSRLTITKDPSKNQVVLTMTNMDPVDTATYYCARSSYGAMDYWGQGTLVTVSS
VL: DIVLTQSPSFLSASVGDRVTITCKASQNVGTNVAWFQQKPGKSPKALIYSASYRYSGVPDRFTGSGSGTEFTLTISSLQPEDFAAYFCQQYNNFPYTFGGGTKLEIKR
notes: Humanized, hinge-stabilized IgG4 (IgG4 S228P) derived from mouse antibody B1-23; captured by anti-human IgG Fc on the chip in the SPR assay; also called visugromab; CTL-001 IgG4*
